The values that follow come from patent EP1876240B1.

Positions count from the first letter of the chain named. Some results are limits rather than exact numbers.

B1: F1257-3-1 (antibody, V domains shown)
VH: QVTLKESGPGMLQPSKTLSLTCSFSGFSLSTSGMVVSWIRQPSGKSLEWLAAIDWDGDKYYNPSLKSRLTVSKDTSNTQVFLKISSVDIADTATYYCARTPYYGYKEAYYFDYWGQGVKVTVSS
VL: DIQMTQSPASLSASLEEIVTITCKASRAIDDYLSWYQQKPGKSPQLLIYDATSLADGVPSRFSGSRSGTQYSLKISRPQVDDSGIYYCLQSYSTPWTFGGGTKLDLKR
B2: F1245-6-2 (antibody, V domains shown)
VH: QVQLQQPGAELVKPGASVKLSCKASGYTFTSYWMHWVKQRPGQGLEWIGMIHPNSGSTNYNEKFKSKATLTVDKSSSTAYMQLSSLTSEDSAVYYCARGGVTPVAYWGQGTLVTVSA
VL: SIVMTQTPKFLLVSAGDRVTITCKASQSVSNDVAWYQQKPGQSPKLLIYYASNRYTGVPYRFTGSGYGTDFTFTISTVQAEDLAVYFCQQDYSSPWTFGGGTKLEIK
B3: F1251-1-1 (antibody, V domains shown)
VH: QVNLLQSGAALVKPGASVKLSCKASGYTFTDYYIHWVKQSHGKSLEWIGYINPNSGYTNYNEKFKSKATLTVDKSTNTAYMELSRLTSEDSATYYCTRCNSGYGDWFAYWGQGTLLTVSS
VL: DIQMTQSPPVLSASVGDRVTLSCKASQNINKNLDWYQQKHGEAPKLLIYYTNNLQTDIPSRFSGSGSGTDYTLTISSLQPEDVATFYCYQYNSGPGTFGAGTKLELKR
B4: F1249-18-2 (antibody, V domains shown)
VH: QVQLQQPGAELVKPGASVKLSCKASGYTFTSYWMHWLKQRPGQGLEWIGMIHPNSDITNYNEKFKNKATLTVDKSSSTAYMQLSSLTSEDSAVYYCARSGDYYAMDYWGQGTSVTVSS
VL: SIVMTQTPKFLLVSAGDRVTITCKASQSVSNDVAWYQQKPGQSPKLLIYYASNRYTGVPDRFTGSGYGTDFTFTISTVQAEDLAVYFCQQDYSSPPTFGGGTKLEIKR
B5: F1249-5-1 (antibody, V domains shown)
VH: B4 VH with D73A, S99L
VL: B4 VL with A34T
B6: F1245-5-1 (antibody, V domains shown)
VH: B2 VH with T30I, N59H
VL: B4 VL with P96W
B7: F1245-4-1 (antibody, V domains shown)
VH: QVQLQQPGAELVKPGASVKLSCKASGCTFTSYWMHWVKQRPGQGLEWIGMIHPNSDNTNYNEKFKSKATLTVDKSSSTAYMHLSSLTSEDSAVYYCATHYYDYVDYWGQGTTLTVSS
VL: B4 VL with S1N, P96W
B8: F1245-7-1 (antibody, V domains shown)
VH: QVQLQQPGAELVKPGASVKLSCKASGYTFTSYWMHWVKQRPGQGLEWIGMIHPNSGSTNYNEKFKSKATLTVDKSSSTAYMQLSSLTSEDSAVYYCASPVTAVVEYYFDYWGQGTTLTVSS
VL: SIVMTQTPKFLLVSAGDRVTITCKASQSVSNDVAWYQQKPGQSPKLLIYYASNRYTGVPDRFTGSGYGTDFTFTISTVQAEDLAVYFCQQDYSSLTFGSGTKLEIKR
B9: F1249-24-1 (antibody, V domains shown)
VH: QVQLQQSGAELVRPGVSVKISCKGSGYTFTDYAMHWVKQSHAKSLEWIGVISTYYGDTSYNQKFKGKATMTVDKSSSTAYMELARLTSEDSAIYYCARAEDYDPWFAYWGQGTLVTVSA
VL: DIVLTQSPASLAVSLGQRATISCRASESVDSYGNSFMHWYQQKPGQPPKLLIYRASNLESGIPARFSGSGSRTDFTLTINPVEADDVATYYCQQSDEDPLTFGAGTKLELKR
B10: F1246-1-1 (antibody, V domains shown)
VH: EVQLVESGGDLVKPGGSLKLSCAASGFTFSSYGMSWVRQTPDKRLEWVATISNGGTYTYYPDSVKGRFTISRDNAKNTLYLQMSSLKSDDTAMYYCGRLRDYYAMDYWGQGTSVTVSS
VL: B9 VL with D96N, L100W, A104G, L110I
B11: F1249-30-1 (antibody, V domains shown)
VH: B9 VH with T69A, E89D
VL: B9 VL
B12: F1249-20-1 (antibody, V domains shown)
VH: B9 VH
VL: B9 VL with H38Y
B13: F1232-37-2 (antibody, V domains shown)
VH: VQLQQSGPELVRPGESVKISCKGSGYTFTDYAIHWVKLSHAKSLEWIGVISIYYDDTNYNQKFKGKATMTVDKSSSTAYLELARLTSEDSAIYYCARRRDSSGPYAMDYWGQGTSVTVSS
VL: B9 VL with D96N, L100Y, A104G, L110I
B14: F1232-37-2 Fab (Fab, V domains shown)
VH: B13 VH
VL: B9 VL with D96N, L100Y, A104G, L110I

Sequence of human GPVI extracellular region-human Fc fusion protein (hGPVI-hFc) (human) (chain, as listed by the source limits assumed): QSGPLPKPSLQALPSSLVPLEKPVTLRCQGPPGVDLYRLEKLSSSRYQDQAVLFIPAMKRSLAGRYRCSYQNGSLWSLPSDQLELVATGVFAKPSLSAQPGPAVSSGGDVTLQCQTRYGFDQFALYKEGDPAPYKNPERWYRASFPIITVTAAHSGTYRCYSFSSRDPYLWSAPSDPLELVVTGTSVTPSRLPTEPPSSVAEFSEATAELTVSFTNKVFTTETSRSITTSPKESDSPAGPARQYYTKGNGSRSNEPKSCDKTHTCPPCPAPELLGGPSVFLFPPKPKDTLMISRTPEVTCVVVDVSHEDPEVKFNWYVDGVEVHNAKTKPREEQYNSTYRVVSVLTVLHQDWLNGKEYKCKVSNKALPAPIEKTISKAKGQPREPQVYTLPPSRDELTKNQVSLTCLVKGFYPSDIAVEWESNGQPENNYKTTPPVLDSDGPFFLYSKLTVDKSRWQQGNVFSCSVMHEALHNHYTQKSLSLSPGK

The first assay concerns the target human GPVI extracellular region-human Fc fusion protein (hGPVI-hFc) (human). In words: SPR (BIACORE3000) as in Example 5. In general terms: In SPR one partner is held on a chip, and binding of the other changes the refractive index at the surface.
B1: the KD (Relative value) against F1232-37-2 (relative to KD of F1232-37-2) turned out to be 0.00298.
In turn, B2 registered a KD (Relative value) against F1232-37-2 (relative to KD of F1232-37-2) of 0.122.
On the same count and under the same terms, with B3 the figure was 7.9; with B4, 0.00103.
On to B5, for which the KD (Relative value) against F1232-37-2 (relative to KD of F1232-37-2) turned out to be 0.00285.
B6: the KD (Relative value) against F1232-37-2 (relative to KD of F1232-37-2) worked out at 1.43.
Turning to B7, the KD (Relative value) against F1232-37-2 (relative to KD of F1232-37-2) amounted to 0.00427.
B8: the KD (Relative value) against F1232-37-2 (relative to KD of F1232-37-2) turned out to be 0.00293.
Molecule B9 displayed a KD (Relative value) against F1232-37-2 (relative to KD of F1232-37-2) of 0.00821.
In turn, B10 showed a KD (Relative value) against F1232-37-2 (relative to KD of F1232-37-2) of 0.884.
B11 returned a KD (Relative value) against F1232-37-2 (relative to KD of F1232-37-2) of 0.347.
On the same count and under the same terms, the value for B12 was 0.00205.

Another assay deals with rat GPVI-human Fc (rGPVI-hFc) (rat; mouse). In words: ELISA on immobilized antigen; control. (In general: In an ELISA, binding on a coated surface is turned into a signal by an enzyme label.)
With B13, the absorbance (ELISA) came out at 0.137.

A further assay has as its target human GPVI extracellular region-human Fc fusion protein (hGPVI-hFc) (human). The assay is described as follows: ELISA on immobilised hGPVI-hFc; + absorbance 0.5 to 1.0.
With B3, the absorbance was 0.5 to 1 od.

The next assay shares this target. The assay is described as follows: ELISA on immobilised hGPVI-hFc; ++ absorbance 1.0 to 2.0.
Take B2: the absorbance was in the range of 1 to 2 od.
For B5, the absorbance lay within 1 to 2 od.
The same measure, in the same setting: with B6 the figure was 1 to 2 od; with B8, 1 to 2 od.
The molecule B10 gave an absorbance of 1 to 2 od.

A further assay has the same target. The assay is described as follows: ELISA on immobilised hGPVI-hFc; +++ absorbance more than 2.0.
Consider B1, for which the absorbance is more than 2 od.
Same read-out and setting: the value for B4 was more than 2 od; that for B7 was more than 2 od.
For the molecule B9, the absorbance is more than 2 od.
The molecule B11 gave an absorbance of more than 2 od.
On the same count and under the same terms, with B12 the figure was more than 2 od.

For a further assay the target is unchanged. In words: SPR (BIACORE 3000), hGPVI-hFc on CM5 chip, 0-800 nM, 1:1 binding fit.
Molecule B14 registered a dissociation constant relative to whole antibody (defined as one) (relative to KD of whole F1232-37-2) of 0.6.
